# Data taken from patent US20210340562.
# Columns and labels:
# Experiment in all cases: EMSA
# [1] = tested on: R2Bm GR/AD/A mutant GR/AD/A (double point, presumptive alpha-finger); conditions: 3' PBM RNA; reduced 24%; with 5' PBM RNA reduced about 13%
# [2] = tested on: R2Bm SR/AGR/A mutant SR/AGR/A (double point, presumptive alpha-finger); conditions: 3' PBM RNA (upstream binding); increased up to 32%
# [3] = tested on: R2Bm SR/AIR/A mutant SR/AIR/A (double point, presumptive alpha-finger); conditions: 3' PBM RNA; reduced 13%; with 5' PBM RNA reduced 19-28%
# R2Bm protein (WT) = R2Bm protein (WT) (UniProt V9H052); conditions: 3' or 5' PBM RNA; reference
# Sequence of UniProt V9H052 (V9H052 entry or part of it): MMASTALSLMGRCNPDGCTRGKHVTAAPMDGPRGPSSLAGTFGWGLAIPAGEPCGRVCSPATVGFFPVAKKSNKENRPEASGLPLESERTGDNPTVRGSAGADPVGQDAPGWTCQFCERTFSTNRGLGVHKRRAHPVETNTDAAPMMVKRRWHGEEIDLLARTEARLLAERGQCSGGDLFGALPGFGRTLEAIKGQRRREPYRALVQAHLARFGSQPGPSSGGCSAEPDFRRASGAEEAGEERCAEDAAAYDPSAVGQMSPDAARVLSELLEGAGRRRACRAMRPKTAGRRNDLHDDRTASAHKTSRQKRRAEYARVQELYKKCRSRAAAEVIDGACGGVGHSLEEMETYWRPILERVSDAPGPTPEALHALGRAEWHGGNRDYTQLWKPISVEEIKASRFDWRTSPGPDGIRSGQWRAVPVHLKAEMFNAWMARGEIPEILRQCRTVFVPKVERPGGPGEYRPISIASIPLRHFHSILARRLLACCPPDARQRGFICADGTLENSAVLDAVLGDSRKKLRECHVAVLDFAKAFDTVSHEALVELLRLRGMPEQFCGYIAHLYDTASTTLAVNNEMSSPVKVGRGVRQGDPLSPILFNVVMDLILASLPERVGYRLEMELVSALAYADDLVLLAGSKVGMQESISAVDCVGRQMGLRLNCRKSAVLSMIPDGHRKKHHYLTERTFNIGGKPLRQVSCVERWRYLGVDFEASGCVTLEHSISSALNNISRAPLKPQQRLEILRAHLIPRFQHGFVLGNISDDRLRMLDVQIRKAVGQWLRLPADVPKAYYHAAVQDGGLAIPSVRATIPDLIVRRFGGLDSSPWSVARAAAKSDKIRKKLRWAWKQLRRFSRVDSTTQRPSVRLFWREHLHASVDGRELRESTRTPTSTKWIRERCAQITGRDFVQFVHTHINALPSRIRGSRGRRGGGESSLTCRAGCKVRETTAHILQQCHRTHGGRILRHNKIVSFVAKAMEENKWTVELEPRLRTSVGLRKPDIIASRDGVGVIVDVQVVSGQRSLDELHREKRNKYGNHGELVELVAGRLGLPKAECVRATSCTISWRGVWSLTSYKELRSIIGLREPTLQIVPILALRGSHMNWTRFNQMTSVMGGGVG
substance,measurement,setting,value
linear 28S rDNA target,binding signal (fraction of WT),[1],0.76
same,binding signal (fraction of WT),[2],1.32
same,binding signal (fraction of WT),[3],0.87
same,binding signal (fraction of WT),R2Bm protein (WT),1
